Where a chain is given by its changes, count along the chain named.
T1: papain (UniProt P00784 134-345)
T1 sequence (looked up): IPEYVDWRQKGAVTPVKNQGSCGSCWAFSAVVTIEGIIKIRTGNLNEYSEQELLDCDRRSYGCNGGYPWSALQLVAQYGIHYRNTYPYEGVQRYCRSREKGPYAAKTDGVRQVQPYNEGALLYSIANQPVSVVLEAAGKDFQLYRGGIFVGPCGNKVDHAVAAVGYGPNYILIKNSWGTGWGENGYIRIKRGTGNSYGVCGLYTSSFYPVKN

B1: Ad-ySUMO 22 (designed binder)
chain: NSLEIEELARFAVDEHNKKENALLEFVRVVKAKEQIDLTQSFDMTMYYLTLEAKDGGKKKLYEAKVWVKPIDSNFTGTNFKELQEFKPVGDA
notes: also called clone 22
B2: Ad-ySUMO 15 (designed binder)
chain: NSLEIEELARFAVDEHNKKENALLEFVRVVKAKEQIDLTQPHDSTMYYLTLEAKDGGKKKLYEAKVWVKYEEDEYWRMNFKELQEFKPVGDA
notes: also called clone 15; Yeast Sumo Adhiron 15
B3: Ad-ySUMO 10 (designed binder)
chain: NSLEIEELARFAVDEHNKKENALLEFVRVVKAKEQIIIHENDADTMYYLTLEAKDGGKKKLYEAKVWVKGIMDGLNKYNFKELQEFKPVGDA
notes: also called clone 10
B4: Ad-ySUMO 20 (designed binder)
chain: NSLEIEELARFAVDEHNKKENALLEFVRVVKAKEQIDLTGQWLFTMYYLTLEAKDGGKKKLYEAKVWVKPLWQYDAQYNFKELQEFKPVGDA
notes: also called clone 20
B5: Ad-ySUMO 18 (designed binder)
chain: NSLEIEELARFAVDEHNKKENALLEFVRVVKAKEQWIDRGQYWDTMYYLTLEAKDGGKKKLYEAKVWVKIHNGYTIMDNFKELQEFKPVGDA
notes: also called clone 18
B6: Ad-ySUMO 23 (designed binder)
chain: B2 chain with Y70P, E71H, E72D, D73E, E74L, Y75N, R77N
notes: also called clone 23
B7: Ad-ySUMO 3 (designed binder)
chain: NSLEIEELARFAVDEHNKKENALLEFVRVVKAKEQINLMMVSPMTMYYLTLEAKDGGKKKLYEAKVWVKGIQQNPSHANFKELQEFKPVGDA
notes: also called clone 3
B8: Ad-ySUMO 2 (designed binder)
chain: NSLEIEELARFAVDEHNKKENALLEFVRVVKAKEQIDLTNSFASTMYYLTLEAKDGGKKKLYEAKVWVKDINQYWHSMNFKELQEFKPVGDA
notes: also called clone 2
B9: Ad-ySUMO 24 (designed binder)
chain: NSLEIEELARFAVDEHNKKENALLEFVRVVKAKEQWEDFQTHWETMYYLTLEAKDGGKKKLYEAKVWVKDVGQLLSGINFKELQEFKPVGDA
notes: also called clone 24
B10: Ad-ySUMO 4 (designed binder)
chain: NSLEIEELARFAVDEHNKKENALLEFVRVVKAKEQIDLTHSLNYTMYYLTLEAKDGGKKKLYEAKVWVKGLTNEIQKMNFKELQEFKPVGDA
notes: also called clone 4
B11: Ad-ySUMO 5 (designed binder)
chain: B10 chain
notes: also called clone 5
B12: Ad-ySUMO 17 (designed binder)
chain: NSLEIEELARFAVDEHNKKENALLEFVRVVKAKEQWYLLDVMDDTMYYLTLEAKDGGKKKLYEAKVWVKHDRRYKQAENFKELQEFKPVGDA
notes: also called clone 17
B13: Ad-ySUMO 7 (designed binder)
chain: NSLEIEELARFAVDEHNKKENALLEFVRVVKAKEQWVDMDYYWRTMYYLTLEAKDGGKKKLYEAKVWVKMDEIWAEYANFKELQEFKPVGDA
notes: also called clone 7
B14: Ad-ySUMO 6 (designed binder)
chain: NSLEIEELARFAVDEHNKKENALLEFVRVVKAKEQIDLTEWQDRTMYYLTLEAKDGGKKKLYEAKVWVKPEPIHSHHSNFKELQEFKPVGDA
notes: also called clone 6
B15: Ad-ySUMO 13 (designed binder)
chain: NSLEIEELARFAVDEHNKKENALLEFVRVVKAKEQWDLTTPINITMYYLTLEAKDGGKKKLYEAKVWVKYEDYQTPMYNFKELQEFKPVGDA
notes: also called clone 13
B16: Ad-ySUMO 8 (designed binder)
chain: NSLEIEELARFAVDEHNKKENALLEFVRVVKAKEQIDLTQTEIVTMYYLTLEAKDGGKKKLYEAKVWVKEPGIIPIVHNFKELQEFKPVGDA
notes: also called clone 8
B17: Ad-ySUMO 14 (designed binder)
chain: NSLEIEELARFAVDEHNKKENALLEFVRVVKAKEQWFDDEYDWITMYYLTLEAKDGGKKKLYEAKVWVKDYAATDLYWNFKELQEFKPVGDA
notes: also called clone 14
B18: Ad-ySUMO 19 (designed binder)
chain: NSLEIEELARFAVDEHNKKENALLEFVRVVKAKEQWSEADNDWHTMYYLTLEAKDGGKKKLYEAKVWVKLDLETWQHFNFKELQEFKPVGDA
notes: also called clone 19
B19: Ad-ySUMO 9 (designed binder)
chain: NSLEIEELARFAVDEHNKKENALLEFVRVVKAKEQIDLTDVWIDTMYYLTLEAKDGGKKKLYEAKVWVKGLMTQTNSMNFKELQEFKPVGDA
notes: also called clone 9
B20: Ad-ySUMO 12 (designed binder)
chain: NSLEIEELARFAVDEHNKKENALLEFVRVVKAKEQWYERSENWDTMYYLTLEAKDGGKKKLYEAKVWVKRDYGFTLVPNFKELQEFKPVGDA
notes: also called clone 12
B21: Ad-ySUMO 1 (designed binder)
chain: NSLEIEELARFAVDEHNKKENALLEFVRVVKAKEQWDLTGNVDTTMYYLTLEAKDGGKKKLYEAKVWVKWDDWGERFWNFKELQEFKPVGDA
notes: also called clone 1
B22: OSA-IΔD86 (other)
chain: MSSDGGPVLGGVEPVGNENDLHLVDLARFAVTEHNKKANSLLEFEKLVSVKQQVVAGTLYYFTIEVKEGDAKKLYEAKVWEKPWMFKELQEFKPVDASANARGSHHHHHH
notes: also called OSA1ΔD86; modified oryzacystatin lacking residue Asp86
B23: CEWC (other, chicken)
chain: SEDRSRLLGAPVPVDENDEGLQRALQFAMAEYNRASNDKYSSRVVRVISAKRQLVSGIKYILQVEIGRTTCPKSSGDLQSCEFHDEPEMAKYTTCTFVVYSIPWLNQIKLLESKCQRGSHHHHHH
notes: also called chicken egg white cystatin
B24: PHYTC57 (designed binder)
chain: MAALLGGVRAVPGNENSLEIEELARFAVDEHNKKENALLEFVRVVKAKEQVVAGTMYYLTLEAKDGGKKKLYEAKVWVKPWETFKELQEFKPVGDARGSHHHHHH
notes: also called consensus phytocystatin; consensus cystatin

What follows are binders tested against T2, yeast Small Ubiquitin-like Modifier protein (SUMO) (yeast, UniProt Q12306 1-98 = SUMO) (assay: BioLayer Interferometry (BLitz), biotinylated Adhiron on streptavidin biosensor, global fit).
T2 construct: also called ySUMO; yeast SUMO
T2 sequence (Q12306 1-98 limits assumed): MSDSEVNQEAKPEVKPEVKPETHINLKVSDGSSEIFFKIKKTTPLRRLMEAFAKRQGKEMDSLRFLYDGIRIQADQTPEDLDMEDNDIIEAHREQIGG
Binder B1 has a Kd of 9 nM.
Binder B2 has a Kd of 2.4 nM.
B3 showed a Kd of 11.5 nM.
Binder B4 has a Kd of 14.2 nM.

The binders below were run against T2, yeast Small Ubiquitin-like Modifier … (assay: phage ELISA on biotinylated ySUMO).
B5: binds.
B6: binds.
B7: binds.
B8: binds.
B9: binds.
B10: binds.
B11: binds.
B12: binds.
B13: binds.
B14: binds.
B15: binds.
B16: binds.
B17: binds.
B18: binds.
B19: binds.
B20: binds.
B21: binds.

The binders below were run against T3, human SUMO1 (human, UniProt P63165 1-97) (assay: ELISA and Western blot with biotinylated Adhiron).
T3 construct: also called hSUMO1
T3 sequence (P63165 1-97 limits assumed): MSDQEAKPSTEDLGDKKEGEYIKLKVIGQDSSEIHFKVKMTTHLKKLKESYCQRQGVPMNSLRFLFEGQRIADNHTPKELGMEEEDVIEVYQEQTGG
B1: no binding.
B2: no binding.
B3: no binding.
B4: no binding.

Each binder was assayed against T1, papain (assay: SPR (BIACORE 3000), cystatin on NTA chip via His tag, papain as analyte, 1:1 Langmuir fit).
For B22, the Ka was 2.1e+08 M⁻¹.
In the case of B23, the Ka is reported as 2.6e+09 M⁻¹, the Kd is reported as 0.39 nM and the kon is reported as 1.3e+06 M⁻¹ s⁻¹.
Work on B24 yielded a Ka of 1.6e+11 M⁻¹, a Kd of 0.0063 nM and a kon of 350000 M⁻¹ s⁻¹.

Each binder was assayed against T1, papain (assay: cell-based or functional assay).
For B22, the “IC50, papain inhibition assay with pGlu-Phe-Leu-p-nitroanilide” value was 1.8e-07 M.
B24 was tested, and the “IC50, papain inhibition assay with pGlu-Phe-Leu-p-nitroanilide” value was 4.6e-08 M.
